Consider 1 protein from publication doi:10.1101/2021.10.27.466211 (bioRxiv, 2021).

This data set concerns the molecule itself. As to the kind of experiment: cross-linking.

B1: PomA-L22C/T33C (natural protein, Vibrio alginolyticus, UniProt O06873 1-253, looked up)
chain: MDLATLLGLIGGFAFVIMAMVCGGSIGMFVDVCSILIVVGGSIFVVLMKFTMGQFFGATKIAGKAFMFKADEPEDLIAKIVEMADAARKGGFLALEEMEINNTFMQKGIDLLVDGHDADVVRAALKKDIALTDERHTQGTGVFRAFGDVAPAMGMIGTLVGLVAMLSNMDDPKAIGPAMAVALLTTLYGAILSNMVFFPIADKLSLRRDQETLNRRLIMDGVLAIQDGQNPRVIDSYLKNYLNEGKRALEIDE
B1: the “stoichiometry N” value is no more than 5.
